The values below come from article PMC5004176, “The antifungal plant defensin AtPDF2.3 from Arabidopsis thaliana blocks potassium channels” (Scientific Reports, 2016).

Assay [1] concerns the target voltage-gated potassium channel rKv1.2 (rat (from the prefix in rKv1.2)) (UniProt P63142).
Assay [2] addresses voltage-gated potassium channel rKv1.6 (rat (from the prefix in rKv1.6)) (UniProt P17659).
The test system of another assay is Kv1.2 channels. Kind of assay: Two-electrode voltage-clamp on Kv1.2 expressed in X. laevis oocytes. Particulars: for IC50: read-out: IC50 for Kv1.2, two-electrode voltage-clamp, X. laevis oocytes, concentration-response curve fitted with Hill equation, mean ± standard error, n ≥ 3.
For a further assay, the system named is Kv1.6 channels. Kind of assay: Two-electrode voltage-clamp on Kv1.6 expressed in X. laevis oocytes. To be noted: for IC50: read-out: IC50 for Kv1.6, two-electrode voltage-clamp, X. laevis oocytes, concentration-response curve fitted with Hill equation, mean ± standard error, n ≥ 3.
In assay [3] the target is voltage-gated potassium channel rKv1.2 (rat (from the prefix in rKv1.2)) (UniProt P63142). This is another data set of the same source.
For assay [4], the target named is voltage-gated potassium channel rKv1.6 (rat (from the prefix in rKv1.6)) (UniProt P17659). The source holds these as a separate data set.

Read-outs that look alike come from different tables or passages of the source. Ends that are not written are not given here.

voltage-gated potassium channel rKv1.2 (rat (from the prefix in rKv1.2)), sequence (P63142 whole entry): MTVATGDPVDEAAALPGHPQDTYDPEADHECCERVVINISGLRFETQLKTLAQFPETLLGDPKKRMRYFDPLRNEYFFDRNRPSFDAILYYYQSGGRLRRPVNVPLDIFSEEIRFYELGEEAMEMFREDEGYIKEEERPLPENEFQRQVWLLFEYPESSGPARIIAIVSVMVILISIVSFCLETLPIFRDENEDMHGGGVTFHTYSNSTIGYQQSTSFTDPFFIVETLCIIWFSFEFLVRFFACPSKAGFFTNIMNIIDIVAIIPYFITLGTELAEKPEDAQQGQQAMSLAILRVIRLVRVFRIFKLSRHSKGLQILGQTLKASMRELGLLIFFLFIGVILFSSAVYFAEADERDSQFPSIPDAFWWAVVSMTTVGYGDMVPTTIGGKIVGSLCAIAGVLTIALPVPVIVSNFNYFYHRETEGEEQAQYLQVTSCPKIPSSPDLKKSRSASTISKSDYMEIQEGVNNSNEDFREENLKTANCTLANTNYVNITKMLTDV
voltage-gated potassium channel rKv1.6 (rat (from the prefix in rKv1.6)), sequence (P17659 whole entry): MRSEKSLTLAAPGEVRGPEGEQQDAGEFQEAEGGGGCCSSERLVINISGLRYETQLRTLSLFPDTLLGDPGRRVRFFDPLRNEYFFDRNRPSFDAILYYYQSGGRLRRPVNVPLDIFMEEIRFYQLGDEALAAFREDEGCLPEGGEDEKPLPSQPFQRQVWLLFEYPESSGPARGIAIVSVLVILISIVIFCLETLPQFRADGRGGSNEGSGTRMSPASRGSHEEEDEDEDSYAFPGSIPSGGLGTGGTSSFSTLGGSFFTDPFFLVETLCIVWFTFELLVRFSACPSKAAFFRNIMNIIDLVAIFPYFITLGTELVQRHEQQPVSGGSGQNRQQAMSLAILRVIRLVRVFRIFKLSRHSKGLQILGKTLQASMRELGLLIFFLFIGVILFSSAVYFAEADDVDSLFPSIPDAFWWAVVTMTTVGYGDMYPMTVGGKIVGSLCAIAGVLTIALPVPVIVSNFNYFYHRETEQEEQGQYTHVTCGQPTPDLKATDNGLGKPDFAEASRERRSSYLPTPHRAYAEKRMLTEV
Procedure for Kv1.2 channels: (§1) For the expression of the voltage-gated potassium channels (rKv1.1, rKv1.2, hKv1.3, rKv1.4, rKv1.5, rKv1.6, Shaker IR, hKv3.1, rKv4.3, and hERG) in Xenopus laevis oocytes, the linearized plasmids were transcribed using the T7 or SP6 mMESSAGE-mMACHINE transcription kit (Ambion). The harvesting of stage V–VI oocytes from an anaesthetized female X. laevis frog was previously described[59]. Oocytes were injected with 50 nL of cRNA at a concentration of 1 ng/nL using a micro-injector (Drummond Scientific, USA). The oocytes were incubated in a solution containing (in mM): NaCl, 96; KCl, 2; CaCl2, 1.8; MgCl2, 2 and HEPES, 5 (pH 7.4), supplemented with 50 mg/L gentamycin sulfate.
(§2) Two-electrode voltage-clamp recordings were performed at room temperature (18–22 °C) using a Geneclamp 500 amplifier (Molecular Devices, USA) controlled by a pClamp data acquisition system (Axon Instruments, USA). Whole cell currents from oocytes were recorded 1–4 days after injection. Bath solution composition was ND96 (in mM): NaCl, 96; KCl, 2; CaCl2, 1.8; MgCl2, 2 and HEPES, 5 (pH 7.4) or HK (in mM): NaCl, 2; KCl, 96; CaCl2, 1.8; MgCl2, 2 and HEPES, 5 (pH 7.4). Voltage and current electrodes were filled with 3 M KCl. Resistances of both electrodes were kept between 0.7 and 1.5 MΩ. The elicited currents were filtered at 0.5 kHz and sampled at 2 kHz (for potassium currents) or filtered at 2 kHz and sampled at 20 kHz (for sodium currents) using a four-pole low-pass Bessel filter. Leak subtraction was performed using a -P/4 protocol. Kv1.1–Kv1.6 and Shaker currents were evoked by 250 ms depolarizations to 0 mV followed by a 250 ms pulse to −50 mV, from a holding potential of −90 mV. Current traces of hERG channels were elicited by applying a +40 mV prepulse for 2 s followed by a step to −120 mV for 2 s. […] In order to investigate the current–voltage relationship, current traces were evoked by 10 mV depolarization steps from a holding potential of −90 mV. To assess the concentration dependency of the toxin induced inhibitory effects, a concentration–response curve was constructed, in which the percentage of current inhibition was plotted as a function of toxin concentration. Data were fitted with the Hill equation: y = 100/[1 + (IC50/[toxin])^h], were y is the amplitude of the toxin-induced effect, IC50 is the toxin concentration at half-maximal efficacy, [toxin] is the toxin concentration, and h is the Hill coefficient. GV curves were calculated from IV relationships as follows: gK = IK/(Em−EK) with EK = (RT/zF)ln[K #0]o/[K #0]i. In these equations gK represents the conductance, IK the potassium current, Em the membrane potential, EK the reversal potential, R the gas constant (8.31 J/K mol), T the temperature, z the charge of the ion (for K+ ions: z = 1), F the Faraday’s constant (96.500 C/mol), [K #0]o and [K #0]i respectively are the extracellular and intracellular K+ ion concentrations. The values of IK or gK were plotted as function of voltage and fitted using the Boltzmann equation: gK/gmax = [1 + exp(Vg−V)/k]−1, were gmax represents maximal gK, Vg is the voltage corresponding to half-maximal conductance, and k is the slope factor. Comparison of two sample means was made using a paired Student’s t test (P < 0.05). All data represent at least three independent experiments (n ≥ 3) and are presented as mean ± standard error.
Procedure for Kv1.6 channels: as §1, §2

In assay [1], “recombinant Arabidopsis thaliana plant defensin AtPDF2.3 (from UniProt Q9ZUL7 31-77) (peptide)” displayed an IC50 of inhibition of Kv1.2 potassium current, two-electrode voltage clamp on X. laevis oocytes, concentration-response curve of 1300 nM; an inhibition of the Kv1.2 potassium current by 2 μM rAtPDF2.3 in HK solution of 66%; an inhibition of the Kv1.2 potassium current by 2 μM rAtPDF2.3 in ND96 solution (data not shown) of 59%. In assay [2], the IC50 of inhibition of Kv1.6 potassium current, two-electrode voltage clamp on X. laevis oocytes, concentration-response curve worked out at 978 nM.
With “rAtPDF2.3[G36N]: rAtPDF2.3 variant with both Lysine33 and Asparagine36 (KCXN toxin signature) (RTCESKSHRFKGPCVSTHNCANVCHNEGFGGGKCRNFRRRCYCTRHC; ends and bridges not checked; cysteine pairing not given here)”, the “fold decrease of Kv1.2 IC50 as compared to rAtPDF2.3” value in the assay with Kv1.2 channels (ratio of IC50 values) is 2.1 fold. Further, the IC50 in the assay with Kv1.2 channels was determined as 611 ± 91 nM; in the assay on Kv1.6 channels, 138 ± 38 nM. Besides, the “fold decrease of Kv1.6 IC50 as compared to rAtPDF2.3” value with Kv1.6 channels (ratio of IC50 values) was 7.1 fold.
With “AtPDF2.3 [K33A][G36N]: rAtPDF2.3 variant containing only Asparagine36 (CXN toxin signature) (RTCESKSHRFKGPCVSTHNCANVCHNEGFGGGACRNFRRRCYCTRHC; ends and bridges not checked; cysteine pairing not given here)”, the IC50 in the assay with Kv1.2 channels is 1380 ± 133 nM; with Kv1.6 channels, 366 ± 114 nM.
Consider “rAtPDF2.3[K33A]: rAtPDF2.3 variant with neither Lysine33 nor Asparagine36, devoid of the toxin signature (RTCESKSHRFKGPCVSTHNCANVCHNEGFGGGACRGFRRRCYCTRHC; ends and bridges not checked; cysteine pairing not given here)”, for which the IC50 with Kv1.2 channels came to 2040 ± 383 nM; with Kv1.6 channels, 3500 ± 235 nM.
Regarding RTCESKSHRFKGPCVSTHNCANVCHNEGFGGGACRGFRRRCYCTRHC (not fully specified; cysteine pairing not given here) [rAtPDF2.3[K33A]], the IC50 of inhibition of Kv1.2 potassium current, two-electrode voltage clamp on X. laevis oocytes, concentration-response curve in assay [3] was found to be 2040 nM. The molecule also gave an IC50 of inhibition of Kv1.6 potassium current, two-electrode voltage clamp on X. laevis oocytes, concentration-response curve in assay [4] of 3500 nM.
Take RTCESKSHRFKGPCVSTHNCANVCHNEGFGGGKCRNFRRRCYCTRHC (not fully specified; cysteine pairing not given here) [rAtPDF2.3[G36N]]: the IC50 of inhibition of Kv1.2 potassium current, two-electrode voltage clamp on X. laevis oocytes, concentration-response curve in assay [3] came to 611 nM. This molecule also had an IC50 of inhibition of Kv1.6 potassium current, two-electrode voltage clamp on X. laevis oocytes, concentration-response curve in assay [4] of 138 nM.
In the same order, the values of RTCESKSHRFKGPCVSTHNCANVCHNEGFGGGACRNFRRRCYCTRHC (not fully specified; cysteine pairing not given here) [rAtPDF2.3[K33A][G36N]] are 1380 nM and 366 nM.
